The text below walks through data of patent publication US20260242493A1.

For test [1], the target named is recombinant human CD40L (BioLegend Cat. #591706) (human) (UniProt P29965). The test can be described thus: ELISA on coated rhCD40L; lower limit of IC50.
Test [2] concerns the target recombinant human FcγRI (human) (UniProt P12314). The test can be described thus: ELISA: test protein coated, recombinant human FcγRI titrated, anti-CD64 detection, A450. For orientation: In an ELISA, binding on a coated surface is turned into a signal by an enzyme label.

As a reminder, the EC50 (read off the curve) is the concentration at which the effect is half-maximal.

Sequence of recombinant human FcγRI (human) (P12314 16-288 limits assumed): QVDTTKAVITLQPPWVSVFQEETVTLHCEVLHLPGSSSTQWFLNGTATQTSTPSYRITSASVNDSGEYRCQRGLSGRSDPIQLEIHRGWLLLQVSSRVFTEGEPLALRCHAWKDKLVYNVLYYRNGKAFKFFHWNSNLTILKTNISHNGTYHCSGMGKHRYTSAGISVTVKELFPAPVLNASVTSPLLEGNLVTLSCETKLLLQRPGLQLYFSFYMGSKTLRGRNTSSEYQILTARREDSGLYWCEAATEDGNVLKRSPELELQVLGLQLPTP
Sequence of recombinant human CD40L (BioLegend Cat. #591706) (human) (P29965 113-261 limits assumed, form in doubt): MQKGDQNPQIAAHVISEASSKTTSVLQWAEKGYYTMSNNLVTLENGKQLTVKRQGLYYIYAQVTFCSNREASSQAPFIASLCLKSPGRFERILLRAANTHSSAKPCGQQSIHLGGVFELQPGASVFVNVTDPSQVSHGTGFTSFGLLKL

As to “anti-CD40L antibody 5c8 (reference antibody)”, in test [1], the LCL came to 0.04. Also, the EC50 (read off the curve) in test [2] came to 0.2 µg/mL.
